Consider 38 variants from the RNAGym collection of RNA variant scans (doi:10.7554/elife.80360).

To fix the notation:
B1: Hairpin Ribozyme (parent)
chain: GUCCUCUUUCACGUGCGCGUGAAAGAGAGAAGUGAACCAGAGAAACACACGUUGUGGUAUAUUACCUGGUA

In this data set the parent is B1. Description: self-cleavage, relative activity (ratio to wild type); higher = more cleavage; co-transcriptional.
For GUCCUCUUUCACGUGCGCGUGCAAGAGAGAACUGAACCAGAGAAACACACGUUGUGGUAUAUUACCUGGUA, the self-cleavage was found to be 0.106.

Take GUCCUCUUUCACGUACGCGUGAAAGAGAGAAGUGAACCAGAGAAACACACGUUGUGGUAUAAUACCUGGUA: the self-cleavage worked out at 0.177.

In the case of GUCCUCUUUCACUUGCGCGUGAAAGACAGAAGUGAACCAGAGAAACACACGUUGUGGUAUAUUACCUGGUA, the self-cleavage is 0.19.

As to GUCCUCUUUCACGUGCGCGUGAAAGAGAGAAGUGAACCAGAGAAACACACGUUGUGGUAUAUUCCCCGGUA, the self-cleavage came out at 0.151.

On to CUCCUAUUUCACGUGCGCGUGAAAGAGAGAAGUGAACCAGAGAAACACACGUUGUGGUAUAUUACCUGGUA, for which the self-cleavage turned out to be 0.245.

In the case of GUCCUCUUUCACGUGCGCGUGAAAGAGAGAAGUGAACCAGAGAAACACAUGUUGUGGUAUAUUACCUUGUA, the self-cleavage was 0.16.

Take GUCCUCUUUCACGUGCGCGUGAAAGAGAGGAUUGAACCAGAGAAACACACGUUGUGGUAUAUUACCUGGUA: the self-cleavage stood at 0.124.

As to UUCCUCUUUCACGUGCGCGUGAAAGAGAGAAGUGAACCAGAGAAACACACGUUGUGGUCUAUUACCUGGUA, the self-cleavage came to 0.183.

With GUCCUCUUUCACGUGCGCGUGAAAGAGAGAAGUGAACAAGAGAAACACACGUUGUGGUAUAUUACCUUGUA, the self-cleavage stood at 0.735.

For the variant GUCCUCUUUCACGUCCGCGUGAAAGAGAGAAGUGAACCAGAGGAACACACGUUGUGGUAUAUUACCUGGUA, the self-cleavage stood at 0.11.

On to GUCCUCUUUCACGUGCUCGUGCAAGAGAGAAGUGAACCAGAGAAACACACGUUGUGGUAUAUUACCUGGUA, for which the self-cleavage amounted to 0.703.

Consider GUCCUCUUUCACGUGCGCGUGAAAGAUAGAAGUGAACCAGAGAAACACACGUUUUGGUAUAUUACCUGGUA, for which the self-cleavage was 0.208.

For GUCCUCUUUCACGAGCGCGUGAAAGAGAGAAGUGAACCAGAGAAACAUACGUUGUGGUAUAUUACCUGGUA, the self-cleavage was found to be 0.123.

As for GUCCUCUUUCACGCGCGCGUGAAAGAGAGAAGUGAACUAGAGAAACACACGUUGUGGUAUAUUACCUGGUA, the self-cleavage stood at 0.493.

For GUCCUCUUUCACGUGCCCGUGGAAGAGAGAAGUGAACCAGAGAAACACACGUUGUGGUAUAUUACCUGGUA, the self-cleavage was 0.552.

Regarding GUCCUCUUUCACGUGCGCGUGAAAGAGAGAAGUGAACCAGAGAAACACAUGUUGUGGUAUUUUACCUGGUA, the self-cleavage was determined as 0.13.

Consider GUCCUCUUUCACUUGCGCGUGAAAGAGAGAAGUGAACCAGAGAAACACACGUUGUGGUAUAUUACCUGGUC, for which the self-cleavage was found to be 1.22.

As to GUCCUCUGUCACGUGCGCCUGAAAGAGAGAAGUGAACCAGAGAAACACACGUUGUGGUAUAUUACCUGGUA, the self-cleavage is 0.36.

Consider GUCCUCUUUCACGUGCGCGUGAAAGAGAGAAGUGAACCAGAGAGACAAACGUUGUGGUAUAUUACCUGGUA, for which the self-cleavage was 0.102.

As for GUCCUCUUUCACGUGCGCGUGAAAGAGAGAAGUGAACCAGACAAACACACGUUGGGGUAUAUUACCUGGUA, the self-cleavage is 0.173.

In the case of GUCCUCUUUCACGUGCGCGUGAAAGAGAGAAGUGAACCCGAGAAACACACGCUGUGGUAUAUUACCUGGUA, the self-cleavage turned out to be 0.56.

Turning to GUCCUCUUUCACGUGCGCGUGAAAGAGAGAAAUGAACCAGAGAAACACACGUUGUGGAAUAUUACCUGGUA, the self-cleavage worked out at 0.0567.

For GUCCUCUUUCACGUACUCGUGAAAGAGAGAAGUGAACCAGAGAAACACACGUUGUGGUAUAUUACCUGGUA, the self-cleavage was 1.05.

In the case of GCCCUCUCUCACGUGCGCGUGAAAGAGAGAAGUGAACCAGAGAAACACACGUUGUGGUAUAUUACCUGGUA, the self-cleavage was found to be 0.236.

Regarding GUCCUCUUUCACGUGCGCGUGAAAGAGAGAAGUGAACCAGAGAAACACACGUUGUGGUAUAUUCCCUUGUA, the self-cleavage amounted to 0.26.

GUCCUCUUACACGUGCGCGUGAAAGGGAGAAGUGAACCAGAGAAACACACGUUGUGGUAUAUUACCUGGUA: the self-cleavage is 0.825.

With GUCCUCUUUCACGUGCGCGUGAAAGAGAGAAGUGAAGCAGAGAAACACACGUUGUGGUAUAUUACCGGGUA, the self-cleavage is 0.132.

For GUCCUCUUUCACGUGCGCGUGAAAGAGAGAAGUGAACCAGAGGAACACACGUUGUGGUAUCUUACCUGGUA, the self-cleavage came to 0.0791.

As to GUCCUGUUUCACGUGCGCGUGAAAGAGAGAAGUGAACCAGAGAUACACACGUUGUGGUAUAUUACCUGGUA, the self-cleavage was found to be 0.148.

As to GUCCUCUUCCACGUGCGCGUGAAAGAGAGAAGUGAACCAGAGAAACACACGUUGUGGUAUAUUACGUGGUA, the self-cleavage is 0.202.

Regarding GUCCUCUUUCACGUGCGCGUGAAAGGGAGAAGUGAACCAGCGAAACACACGUUGUGGUAUAUUACCUGGUA, the self-cleavage worked out at 1.25.

Consider GUCCUCUUGCACGUGCGCGUGAAAGAGAGAAGUGAACCAGAGAAACACACGUUUUGGUAUAUUACCUGGUA, for which the self-cleavage was 0.52.

As for GUCUUCUUUCACGUGCGCGUGAAAGAGAGAAGUGAACCAGAUAAACACACGUUGUGGUAUAUUACCUGGUA, the self-cleavage was determined as 0.129.

As for GUCCUCUUUCACGUGCGCGUGAAAGAGAGAAGUUAACCAGAGAAACACACGUUGUGGUAUAUUAGCUGGUA, the self-cleavage came to 1.35.

As to GACCUCUUUCACGUGCGCGUGAAAGAGAGAAGUGAACCAGUGAAACACACGUUGUGGUAUAUUACCUGGUA, the self-cleavage turned out to be 0.54.

For GUCCUCUUUCACGUGCGCGUGAAAGAGAGAAGGGAACCAGAGAAACACACGUUGUGGUAUAUUAUCUGGUA, the self-cleavage came out at 0.0212.

On to GUCCUCUUUCACGUCCGCGUGAAAGAGAGAAGUGAACCAGAGAAACACACGUUGUGGCAUAUUACCUGGUA, for which the self-cleavage came to 0.974.

For GUCCUCUUUCACGUGCGCGUGACAGAGACAAGUGAACCAGAGAAACACACGUUGUGGUAUAUUACCUGGUA, the self-cleavage amounted to 0.126.
